Measured values reported in IntAct's records for PubMed 9311911.

B1: Protein STE5 (Saccharomyces cerevisiae), P32917 (parent)
chain: MMETPTDNIVSPFHNFGSSTQYSGTLSRTPNQIIELEKPSTLSPLSRGKKWTEKLARFQRSSAKKKRFSPSPISSSTFSFSPKSRVTSSNSSGNEDGNLMNTPSTVSTDYLPQHPHRTSSLPRPNSNLFHASNSNLSRANEPPRAENLSDNIPPKVAPFGYPIQRTSIKKSFLNASCTLCDEPISNRRKGEKIIELACGHLSHQECLIISFGTTSKADVRALFPFCTKCKKDTNKAVQCIPENDELKDILISDFLIHKIPDSELSITPQSRFPPYSPLLPPFGLSYTPVERQTIYSQAPSLNPNLILAAPPKERNQIPQKKSNYTFLHSPLGHRRIPSGANSILADTSVALSANDSISAVSNSVRAKDDETKTTLPLLRSYFIQILLNNFQEELQDWRIDGDYGLLRLVDKLMISKDGQRYIQCWCFLFEDAFVIAEVDNDVDVLEIRLKNLEVFTPIANLRMTTLEASVLKCTLNKQHCADLSDLYIVQNINSDESTTVQKWISGILNQDFVFNEDNITSTLPILPIIKNFSKDVGNGRHETSTFLGLINPNKVVEVGNVHDNDTVIIRRGFTLNSGECSRQSTVDSIQSVLTTISSILSLKREKPDNLAIILQIDFTKLKEEDSLIVVYNSLKALTIKFARLQFCFVDRNNYVLDYGSVLHKIDSLDSISNLKSKSSSTQFSPIWLKNTLYPENIHEHLGIVAVSNSNMEAKKSILFQDYRCFTSFGRRRPNELKIKVGYLNVDYSDKIDELVEASSWTFVLETLCYSFGLSFDEHDDDDEEDNDDSTDNELDNSSGSLSDAESTTTIHIDSPFDNENATANMVNDRNLLTEGEHSNIENLETVASSVQPALIPNIRFSLHSEEEGTNENENENDMPVLLLSDMDKGIDGITRRSSFSSLIESGNNNCPLHMDYI
partner: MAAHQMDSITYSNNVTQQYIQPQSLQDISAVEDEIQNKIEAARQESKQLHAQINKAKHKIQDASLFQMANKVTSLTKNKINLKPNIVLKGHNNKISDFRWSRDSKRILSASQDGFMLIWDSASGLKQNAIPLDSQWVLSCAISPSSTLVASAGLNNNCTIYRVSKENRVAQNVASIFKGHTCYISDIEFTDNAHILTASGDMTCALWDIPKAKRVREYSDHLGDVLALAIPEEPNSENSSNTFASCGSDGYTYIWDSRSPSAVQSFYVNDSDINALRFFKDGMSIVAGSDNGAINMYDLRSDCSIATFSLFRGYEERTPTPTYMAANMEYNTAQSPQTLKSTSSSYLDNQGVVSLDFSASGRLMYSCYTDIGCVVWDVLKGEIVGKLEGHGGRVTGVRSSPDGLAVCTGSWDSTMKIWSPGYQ

Variants of: B1
Settings: with gbb_yeast STE4, P18851
For C177A;C180A, the “effect of a mutation on the interaction” value was “disrupting interaction”.
